Source: US20180155451A1 (published 2018)

B1: GpH7-A5/GpH7-B3 variant S337_08L/GpL16-k0 (antibody, human IgG1, kappa)
heavy 1: not shown
heavy 2: not shown
light: DIVMTQSPLSLPVTPGEPASISCQASESLVHSNRNTYLHWYLQKPGQSPQLLIYKVSNRFSGVPDRFSGSGSGTDFTLKISRVEAEDVGVYYCSQNTHVPPTFGQGTKVEIERTVAAPSVFIFPPSDEQLKSGTASVVCLLNNFYPREAKVQWKVDNALQSGNSQESVTEQDSKDSTYSLSSTLTLSKADYEKHKVYACEVTHQGLSSPVTKSFNRGEC
notes: heterodimerized, mutation in one H chain only; also called He Ab
B2: GpH7-A5/GpH7-B3 variant Y296_04F/GpL16-k0 (antibody, human IgG1, kappa)
heavy 1: not shown
heavy 2: not shown
light: B1 light
notes: as for B1
B3: GpH7-A5/GpH7-B3 variant K334_04F/GpL16-k0 (antibody, human IgG1, kappa)
heavy 1: not shown
heavy 2: not shown
light: B1 light
notes: as for B1
B4: GpH7-A5/GpH7-B3 variant H268_19Q/GpL16-k0 (antibody, human IgG1, kappa)
heavy 1: not shown
heavy 2: not shown
light: B1 light
notes: as for B1
B5: GpH7-A5/GpH7-B3 variant H268_02A/GpL16-k0 (antibody, human IgG1, kappa)
heavy 1: not shown
heavy 2: not shown
light: B1 light
notes: as for B1
B6: GpH7-A5/GpH7-B3 variant T335_20W/GpL16-k0 (antibody, human IgG1, kappa)
heavy 1: not shown
heavy 2: not shown
light: B1 light
notes: as for B1
B7: GpH7-A5/GpH7-B3 variant G236_07I/GpL16-k0 (antibody, human IgG1, kappa)
heavy 1: not shown
heavy 2: not shown
light: B1 light
notes: as for B1
B8: GpH7-A5/GpH7-B3 variant K326_06M/GpL16-k0 (antibody, human IgG1, kappa)
heavy 1: not shown
heavy 2: not shown
light: B1 light
notes: as for B1
B9: GpH7-A5/GpH7-B3 variant I336_08L/GpL16-k0 (antibody, human IgG1, kappa)
heavy 1: not shown
heavy 2: not shown
light: B1 light
notes: as for B1
B10: GpH7-A5/GpH7-B3 variant E333_09D/GpL16-k0 (antibody, human IgG1, kappa)
heavy 1: not shown
heavy 2: not shown
light: B1 light
notes: as for B1
B11: GpH7-A5/GpH7-B3 variant L328_06M/GpL16-k0 (antibody, human IgG1, kappa)
heavy 1: not shown
heavy 2: not shown
light: B1 light
notes: as for B1
B12: GpH7-A5/GpH7-B3 variant G236_03V/GpL16-k0 (antibody, human IgG1, kappa)
heavy 1: not shown
heavy 2: not shown
light: B1 light
notes: as for B1
B13: GpH7-A5/GpH7-B3 variant H268_18N/GpL16-k0 (antibody, human IgG1, kappa)
heavy 1: not shown
heavy 2: not shown
light: B1 light
notes: as for B1
B14: GpH7-A5/GpH7-B3 variant Y296_16H/GpL16-k0 (antibody, human IgG1, kappa)
heavy 1: not shown
heavy 2: not shown
light: B1 light
notes: as for B1
B15: GpH7-A5/GpH7-B3 variant S239_09D/GpL16-k0 (antibody, human IgG1, kappa)
heavy 1: not shown
heavy 2: not shown
light: B1 light
notes: as for B1
B16: GpH7-A5/GpH7-B3 variant S267_02A/GpL16-k0 (antibody, human IgG1, kappa)
heavy 1: not shown
heavy 2: not shown
light: B1 light
notes: as for B1
B17: GpH7-A5/GpH7-B3 variant K334_08L/GpL16-k0 (antibody, human IgG1, kappa)
heavy 1: not shown
heavy 2: not shown
light: B1 light
notes: as for B1
B18: GpH7-A5/GpH7-B3 variant V266_08L/GpL16-k0 (antibody, human IgG1, kappa)
heavy 1: not shown
heavy 2: not shown
light: B1 light
notes: as for B1
B19: GpH7-A5/GpH7-B3 variant A330_16H/GpL16-k0 (antibody, human IgG1, kappa)
heavy 1: not shown
heavy 2: not shown
light: B1 light
notes: as for B1
B20: GpH7-A5/GpH7-B3 variant S324_02A/GpL16-k0 (antibody, human IgG1, kappa)
heavy 1: not shown
heavy 2: not shown
light: B1 light
notes: as for B1
B21: GpH7-A5/GpH7-B3 variant Y296_09D/GpL16-k0 (antibody, human IgG1, kappa)
heavy 1: not shown
heavy 2: not shown
light: B1 light
notes: as for B1
B22: GpH7-A5/GpH7-B3 variant S337_20W/GpL16-k0 (antibody, human IgG1, kappa)
heavy 1: not shown
heavy 2: not shown
light: B1 light
notes: as for B1
B23: GpH7-A5/GpH7-B3 variant K326_10E/GpL16-k0 (antibody, human IgG1, kappa)
heavy 1: not shown
heavy 2: not shown
light: B1 light
notes: as for B1
B24: GpH7-A5/GpH7-B3 variant L328_20W/GpL16-k0 (antibody, human IgG1, kappa)
heavy 1: not shown
heavy 2: not shown
light: B1 light
notes: as for B1
B25: GpH7-A5/GpH7-B3 variant I336_06M/GpL16-k0 (antibody, human IgG1, kappa)
heavy 1: not shown
heavy 2: not shown
light: B1 light
notes: as for B1
B26: GpH7-A5/GpH7-B3 variant L235_04F/GpL16-k0 (antibody, human IgG1, kappa)
heavy 1: not shown
heavy 2: not shown
light: B1 light
notes: as for B1
B27: GpH7-A5/GpH7-B3 variant K334_16H/GpL16-k0 (antibody, human IgG1, kappa)
heavy 1: not shown
heavy 2: not shown
light: B1 light
notes: as for B1
B28: GpH7-A5/GpH7-B3 variant K326_19Q/GpL16-k0 (antibody, human IgG1, kappa)
heavy 1: not shown
heavy 2: not shown
light: B1 light
notes: as for B1
B29: GpH7-A5/GpH7-B3 variant L235_15Y/GpL16-k0 (antibody, human IgG1, kappa)
heavy 1: not shown
heavy 2: not shown
light: B1 light
notes: as for B1
B30: GpH7-A5/GpH7-B3 variant L235_20W/GpL16-k0 (antibody, human IgG1, kappa)
heavy 1: not shown
heavy 2: not shown
light: B1 light
notes: as for B1
B31: GpH7-A5/GpH7-B3 variant L328_14T/GpL16-k0 (antibody, human IgG1, kappa)
heavy 1: not shown
heavy 2: not shown
light: B1 light
notes: as for B1
B32: GpH7-A5/GpH7-B3 variant T335_18N/GpL16-k0 (antibody, human IgG1, kappa)
heavy 1: not shown
heavy 2: not shown
light: B1 light
notes: as for B1
B33: GpH7-B3 variant G236_15Y/GpL16-k0 (antibody, human IgG1, kappa)
heavy: not shown
light: B1 light
notes: homodimerized, mutation in both H chains; also called Ho Ab
B34: GpH7-B3 variant I336_03V/GpL16-k0 (antibody, human IgG1, kappa)
heavy: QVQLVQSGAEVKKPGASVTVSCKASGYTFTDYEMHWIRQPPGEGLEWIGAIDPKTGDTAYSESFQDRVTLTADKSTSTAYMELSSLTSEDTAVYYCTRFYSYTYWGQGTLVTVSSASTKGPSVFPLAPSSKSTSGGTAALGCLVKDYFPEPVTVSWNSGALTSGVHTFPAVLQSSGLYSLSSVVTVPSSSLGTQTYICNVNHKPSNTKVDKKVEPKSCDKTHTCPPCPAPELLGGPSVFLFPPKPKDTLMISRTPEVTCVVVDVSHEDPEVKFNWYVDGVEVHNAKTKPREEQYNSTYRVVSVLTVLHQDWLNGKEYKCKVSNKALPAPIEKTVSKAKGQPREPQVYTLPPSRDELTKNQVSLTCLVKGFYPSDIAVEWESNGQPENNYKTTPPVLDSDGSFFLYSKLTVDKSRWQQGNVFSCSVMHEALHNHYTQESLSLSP
light: B1 light
notes: as for B33
B35: GpH7-B3 variant L234_04F/GpL16-k0 (antibody, human IgG1, kappa)
heavy: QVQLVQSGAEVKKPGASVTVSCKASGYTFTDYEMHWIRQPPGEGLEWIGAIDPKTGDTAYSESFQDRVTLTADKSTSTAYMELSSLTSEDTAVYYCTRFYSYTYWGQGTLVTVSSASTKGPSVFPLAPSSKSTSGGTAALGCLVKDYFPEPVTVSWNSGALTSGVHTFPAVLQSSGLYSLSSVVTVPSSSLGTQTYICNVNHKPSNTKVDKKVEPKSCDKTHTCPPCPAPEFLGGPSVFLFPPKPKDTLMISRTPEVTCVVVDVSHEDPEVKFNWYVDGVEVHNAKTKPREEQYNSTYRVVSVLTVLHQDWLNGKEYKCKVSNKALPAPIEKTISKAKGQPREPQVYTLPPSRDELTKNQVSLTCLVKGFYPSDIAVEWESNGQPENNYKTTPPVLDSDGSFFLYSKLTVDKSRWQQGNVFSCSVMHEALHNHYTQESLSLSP
light: B1 light
notes: as for B33
B36: GpH7-B3 variant V266_07I/GpL16-k0 (antibody, human IgG1, kappa)
heavy: not shown
light: B1 light
notes: as for B33
B37: GpH7-B3 variant A330_19Q/GpL16-k0 (antibody, human IgG1, kappa)
heavy: not shown
light: B1 light
notes: as for B33
B38: GpH7-B3 variant I336_18N/GpL16-k0 (antibody, human IgG1, kappa)
heavy: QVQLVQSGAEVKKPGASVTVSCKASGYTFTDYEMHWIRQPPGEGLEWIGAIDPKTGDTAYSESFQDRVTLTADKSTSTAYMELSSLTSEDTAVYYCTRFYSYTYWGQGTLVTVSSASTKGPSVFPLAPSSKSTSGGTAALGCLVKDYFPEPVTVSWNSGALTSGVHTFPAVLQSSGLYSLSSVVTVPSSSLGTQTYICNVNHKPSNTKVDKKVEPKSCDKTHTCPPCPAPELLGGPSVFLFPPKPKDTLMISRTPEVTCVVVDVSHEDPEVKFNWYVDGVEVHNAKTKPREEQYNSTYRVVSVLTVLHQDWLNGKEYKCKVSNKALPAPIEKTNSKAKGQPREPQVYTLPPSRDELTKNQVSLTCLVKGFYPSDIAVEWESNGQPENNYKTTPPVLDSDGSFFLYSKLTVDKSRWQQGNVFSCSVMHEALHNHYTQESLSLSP
light: B1 light
notes: as for B33
B39: GpH7-B3 variant G236_04F/GpL16-k0 (antibody, human IgG1, kappa)
heavy: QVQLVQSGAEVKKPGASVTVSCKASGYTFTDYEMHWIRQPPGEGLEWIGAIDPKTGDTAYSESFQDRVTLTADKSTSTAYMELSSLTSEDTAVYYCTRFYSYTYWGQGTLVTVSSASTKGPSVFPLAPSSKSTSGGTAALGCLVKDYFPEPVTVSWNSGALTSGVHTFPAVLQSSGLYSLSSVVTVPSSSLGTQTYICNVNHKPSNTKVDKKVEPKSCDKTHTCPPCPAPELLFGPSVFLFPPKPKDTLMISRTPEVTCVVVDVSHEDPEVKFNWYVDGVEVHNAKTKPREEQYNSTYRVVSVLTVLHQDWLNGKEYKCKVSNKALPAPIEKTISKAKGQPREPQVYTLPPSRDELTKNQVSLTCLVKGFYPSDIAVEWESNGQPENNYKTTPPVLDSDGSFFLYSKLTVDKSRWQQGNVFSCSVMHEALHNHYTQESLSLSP
light: B1 light
notes: as for B33
B40: GpH7-B3 variant E333_08L/GpL16-k0 (antibody, human IgG1, kappa)
heavy: not shown
light: B1 light
notes: as for B33
B41: GpH7-B3 variant S239_08L/GpL16-k0 (antibody, human IgG1, kappa)
heavy: not shown
light: B1 light
notes: as for B33
B42: GpH7-B3 variant K334_13S/GpL16-k0 (antibody, human IgG1, kappa)
heavy: not shown
light: B1 light
notes: as for B33
B43: GpH7-B3 variant K326_12R/GpL16-k0 (antibody, human IgG1, kappa)
heavy: not shown
light: B1 light
notes: as for B33
B44: GpH7-B3 variant Y296_18N/GpL16-k0 (antibody, human IgG1, kappa)
heavy: not shown
light: B1 light
notes: as for B33
B45: GpH7-B3 variant L234_20W/GpL16-k0 (antibody, human IgG1, kappa)
heavy: not shown
light: B1 light
notes: as for B33
B46: GpH7-B3 variant L234_15Y/GpL16-k0 (antibody, human IgG1, kappa)
heavy: not shown
light: B1 light
notes: as for B33
B47: GpH7-B3 variant E333_13S/GpL16-k0 (antibody, human IgG1, kappa)
heavy: not shown
light: B1 light
notes: as for B33
B48: GpH7-B3 variant K326_07I/GpL16-k0 (antibody, human IgG1, kappa)
heavy: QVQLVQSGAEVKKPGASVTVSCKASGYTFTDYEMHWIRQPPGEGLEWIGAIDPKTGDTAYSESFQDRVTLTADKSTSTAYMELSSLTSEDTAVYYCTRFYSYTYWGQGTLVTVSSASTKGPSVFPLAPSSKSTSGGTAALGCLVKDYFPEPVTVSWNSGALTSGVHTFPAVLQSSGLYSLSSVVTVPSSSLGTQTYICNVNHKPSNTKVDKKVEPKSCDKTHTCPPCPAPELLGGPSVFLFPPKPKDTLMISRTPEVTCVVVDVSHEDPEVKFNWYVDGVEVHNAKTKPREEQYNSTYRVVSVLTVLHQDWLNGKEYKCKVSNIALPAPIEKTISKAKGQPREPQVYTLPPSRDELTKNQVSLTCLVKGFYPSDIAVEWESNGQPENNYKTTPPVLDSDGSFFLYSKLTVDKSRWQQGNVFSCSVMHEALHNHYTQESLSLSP
light: B1 light
notes: as for B33
B49: GpH7-B3 variant K334_19Q/GpL16-k0 (antibody, human IgG1, kappa)
heavy: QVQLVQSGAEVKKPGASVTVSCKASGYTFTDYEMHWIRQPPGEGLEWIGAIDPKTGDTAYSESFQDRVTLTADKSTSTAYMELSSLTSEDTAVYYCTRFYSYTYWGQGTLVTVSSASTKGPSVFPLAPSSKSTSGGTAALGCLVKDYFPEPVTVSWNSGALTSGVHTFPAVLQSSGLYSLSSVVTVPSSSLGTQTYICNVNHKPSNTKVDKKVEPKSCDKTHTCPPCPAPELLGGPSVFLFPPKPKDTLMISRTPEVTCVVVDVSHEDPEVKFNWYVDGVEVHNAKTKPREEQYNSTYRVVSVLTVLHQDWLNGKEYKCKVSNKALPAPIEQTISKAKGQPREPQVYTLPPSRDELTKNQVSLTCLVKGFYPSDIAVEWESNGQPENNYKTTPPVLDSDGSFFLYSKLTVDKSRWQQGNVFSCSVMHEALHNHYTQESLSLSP
light: B1 light
notes: as for B33
B50: GpH7-B3 variant I336_10E/GpL16-k0 (antibody, human IgG1, kappa)
heavy: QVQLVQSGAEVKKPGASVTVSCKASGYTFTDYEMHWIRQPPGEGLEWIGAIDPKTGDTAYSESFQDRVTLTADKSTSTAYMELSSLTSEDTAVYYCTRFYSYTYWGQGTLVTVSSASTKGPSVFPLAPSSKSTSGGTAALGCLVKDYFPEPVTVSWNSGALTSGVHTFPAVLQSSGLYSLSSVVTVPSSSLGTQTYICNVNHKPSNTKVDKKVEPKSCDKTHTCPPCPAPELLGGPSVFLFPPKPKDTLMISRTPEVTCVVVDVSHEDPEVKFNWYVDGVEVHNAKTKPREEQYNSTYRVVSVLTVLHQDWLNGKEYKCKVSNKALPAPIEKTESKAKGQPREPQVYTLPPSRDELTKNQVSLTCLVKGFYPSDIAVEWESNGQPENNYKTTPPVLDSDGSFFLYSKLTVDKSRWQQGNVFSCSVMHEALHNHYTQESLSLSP
light: B1 light
notes: as for B33
B51: GpH7-B3 variant S239_10E/GpL16-k0 (antibody, human IgG1, kappa)
heavy: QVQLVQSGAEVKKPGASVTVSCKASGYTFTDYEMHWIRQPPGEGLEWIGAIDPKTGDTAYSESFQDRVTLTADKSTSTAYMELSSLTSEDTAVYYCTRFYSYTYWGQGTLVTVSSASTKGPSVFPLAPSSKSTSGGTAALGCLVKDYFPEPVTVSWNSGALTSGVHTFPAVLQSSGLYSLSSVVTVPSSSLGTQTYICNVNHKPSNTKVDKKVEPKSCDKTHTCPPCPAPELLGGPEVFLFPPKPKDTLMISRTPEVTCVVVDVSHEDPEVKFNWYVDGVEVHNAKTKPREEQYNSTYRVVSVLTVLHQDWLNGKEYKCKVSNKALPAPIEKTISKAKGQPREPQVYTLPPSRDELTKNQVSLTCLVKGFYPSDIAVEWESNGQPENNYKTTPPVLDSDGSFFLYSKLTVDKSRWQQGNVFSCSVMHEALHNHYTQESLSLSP
light: B1 light
notes: as for B33
B52: GpH7-B3 variant S267_09D/GpL16-k0 (antibody, human IgG1, kappa)
heavy: not shown
light: B1 light
notes: as for B33
B53: GpH7-B3 variant E333_04F/GpL16-k0 (antibody, human IgG1, kappa)
heavy: not shown
light: B1 light
notes: as for B33
B54: GpH7-B3 variant A327_09D/GpL16-k0 (antibody, human IgG1, kappa)
heavy: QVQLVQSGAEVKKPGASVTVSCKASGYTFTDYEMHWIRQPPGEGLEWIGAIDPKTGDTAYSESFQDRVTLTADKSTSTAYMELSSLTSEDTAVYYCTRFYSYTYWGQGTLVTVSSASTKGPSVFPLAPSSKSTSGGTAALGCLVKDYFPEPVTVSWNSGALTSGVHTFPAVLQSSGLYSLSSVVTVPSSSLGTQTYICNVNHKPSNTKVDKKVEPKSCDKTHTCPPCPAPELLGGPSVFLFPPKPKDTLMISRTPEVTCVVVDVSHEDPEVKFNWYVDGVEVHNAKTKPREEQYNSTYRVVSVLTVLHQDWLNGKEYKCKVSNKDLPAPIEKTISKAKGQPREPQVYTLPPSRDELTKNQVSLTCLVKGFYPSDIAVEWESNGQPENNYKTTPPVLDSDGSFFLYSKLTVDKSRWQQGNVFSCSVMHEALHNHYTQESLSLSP
light: B1 light
notes: as for B33
B55: GpH7-B3 variant G236_14T/GpL16-k0 (antibody, human IgG1, kappa)
heavy: not shown
light: B1 light
notes: as for B33
B56: GpH7-B3 variant E333_14T/GpL16-k0 (antibody, human IgG1, kappa)
heavy: not shown
light: B1 light
notes: as for B33
B57: GpH7-B3 variant S337_07I/GpL16-k0 (antibody, human IgG1, kappa)
heavy: not shown
light: B1 light
notes: as for B33
B58: GpH7-B3 variant S267_10E/GpL16-k0 (antibody, human IgG1, kappa)
heavy: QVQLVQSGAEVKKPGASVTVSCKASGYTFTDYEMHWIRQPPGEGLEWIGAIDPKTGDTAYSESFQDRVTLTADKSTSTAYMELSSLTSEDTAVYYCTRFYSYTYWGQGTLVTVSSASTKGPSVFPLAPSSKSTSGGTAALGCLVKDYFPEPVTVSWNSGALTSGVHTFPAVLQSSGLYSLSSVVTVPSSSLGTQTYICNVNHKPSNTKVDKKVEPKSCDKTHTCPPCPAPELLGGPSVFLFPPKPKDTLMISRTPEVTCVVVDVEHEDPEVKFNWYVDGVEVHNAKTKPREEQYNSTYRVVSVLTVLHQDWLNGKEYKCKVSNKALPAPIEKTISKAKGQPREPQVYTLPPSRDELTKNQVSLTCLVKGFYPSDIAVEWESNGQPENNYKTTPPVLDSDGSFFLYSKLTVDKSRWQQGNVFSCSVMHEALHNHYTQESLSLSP
light: B1 light
notes: as for B33
B59: GpH7-B3 variant K326_01G/GpL16-k0 (antibody, human IgG1, kappa)
heavy: not shown
light: B1 light
notes: as for B33

Molecular target: T1, FcγRIIa H (human FcγRIIa, allotype with His at position 131), extracellular domain with C-terminal His tag (human, UniProt P12318 34-217)
Test: SPR (Biacore), antibody captured on antigen peptide chip, FcγR as analyte; relative to HeCon Ab GpH7-A5/GpH7-B3/GpL16-k0 = 100

T1 sequence (P12318 34-217): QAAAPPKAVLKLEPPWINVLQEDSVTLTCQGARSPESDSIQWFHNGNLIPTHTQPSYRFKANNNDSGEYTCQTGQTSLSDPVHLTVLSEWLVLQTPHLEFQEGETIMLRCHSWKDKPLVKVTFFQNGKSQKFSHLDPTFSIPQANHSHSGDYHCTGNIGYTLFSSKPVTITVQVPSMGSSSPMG

He/Con_2aH | Binder
100 control = 100 | B1
100 control = 100 | B2
106 control = 100 | B3
102 control = 100 | B4
114 control = 100 | B5
105 control = 100 | B6
115 control = 100 | B7
103 control = 100 | B8
106 control = 100 | B9
103 control = 100 | B10
104 control = 100 | B11
119 control = 100 | B12
112 control = 100 | B13
104 control = 100 | B14
114 control = 100 | B15
120 control = 100 | B16

He/Con_2aH | Binder
104 control = 100 | B17
104 control = 100 | B18
101 control = 100 | B19
102 control = 100 | B20
104 control = 100 | B21
102 control = 100 | B22
102 control = 100 | B23
113 control = 100 | B24
106 control = 100 | B25
111 control = 100 | B26
104 control = 100 | B27
101 control = 100 | B28
122 control = 100 | B29
118 control = 100 | B30
116 control = 100 | B31
103 control = 100 | B32

Molecular target: T1, FcγRIIa H (human FcγRIIa, allotype with …)
Test: SPR (Biacore), antibody captured on antigen peptide chip, FcγR as analyte; relative to HoCon Ab GpH7-B3/GpL16-k0 = 100

Ho/Con_2aH | Binder
80.4 control = 100 | B33
90.4 control = 100 | B34
54.2 control = 100 | B35
104 control = 100 | B36
99.2 control = 100 | B37
94.3 control = 100 | B38
63.2 control = 100 | B39
96.5 control = 100 | B40
87 control = 100 | B41
94.9 control = 100 | B42
98.8 control = 100 | B43
100 control = 100 | B44
55.3 control = 100 | B45
43.8 control = 100 | B46
94.6 control = 100 | B47
78.1 control = 100 | B48
97.2 control = 100 | B49
93.4 control = 100 | B50
91.4 control = 100 | B51
91.5 control = 100 | B52
93.6 control = 100 | B53
90.1 control = 100 | B54
94.2 control = 100 | B55
90.4 control = 100 | B56
94 control = 100 | B57
98.5 control = 100 | B58
98.2 control = 100 | B59
